The source of these data is patent publication US20250320282A1 (MABYLON, published 2025).

For assay [1], the target named is T1, Ara h 2 (Arachis hypogaea allergen 2) (Arachis hypogaea, UniProt Q6PSU2 22-172).
T1 construct: Peanut allergen; also called nAra h 2; natural Ara h 2
T1 sequence: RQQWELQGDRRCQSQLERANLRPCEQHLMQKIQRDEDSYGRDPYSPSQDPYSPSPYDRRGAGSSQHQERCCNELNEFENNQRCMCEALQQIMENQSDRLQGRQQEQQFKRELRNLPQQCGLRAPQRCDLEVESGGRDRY
The experiment in a line: ELISA, antibody titrated on coated Ara h 2. The protocol:
(§1) Monoclonal antibodies 2F8, 7G6, 17H9 and 15E3 were tested for their specificity against the major peanut allergens Ara h 1, 2, 3, and 6 by ELISA (enzyme linked immunosorbent assay). Briefly, ELISA plates were coated with respective Ara h proteins (Arah1: 0.5 ug/ml, Arah2: 0.01 ug/ml, Arah3: 0.1 ug/ml, Arah6: 0.05 ug/ml) overnight at 4° C. Afterwards, plates were blocked with BSA (2% in PBS) for 1 hour at room temperature. Antibody titration series starting from 3 ug/ml was prepared, added to the single ELISA plate wells and incubated for 2 h at room temperature. The read-out was performed by adding anti-hu-IgG-HRP (anti-human-IgG horseradish peroxidase; Jackson ImmunoResearch, West Grove, PA, USA) for 1 h at room temperature. Tetramethylbenzidine substrate solution (TMB, Sigma-Aldrich Chemie GmbH, Buchs, Switzerland) was added, then after 5 minutes of hydrolysis time, the reaction was stopped by the addition of 1 M H₂SO₄ and the absorbances were read at 450 nm.

Assay [2] has as its target T2, Ara h 6 (Arachis hypogaea allergen 6) (Arachis hypogaea, UniProt Q647G9 22-145).
T2 construct: Peanut allergen; also called Ara h 6.0101; nAra h 6
T2 sequence: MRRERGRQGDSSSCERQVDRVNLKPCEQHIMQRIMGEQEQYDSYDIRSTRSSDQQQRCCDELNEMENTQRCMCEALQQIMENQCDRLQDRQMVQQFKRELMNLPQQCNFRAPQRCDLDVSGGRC
The experiment in a line: ELISA, antibody titrated on coated Ara h 6. The protocol: as §1
On the technique in general: In an ELISA, binding on a coated surface is turned into a signal by an enzyme label.

For assay [3], the target named is T2, Ara h 6 (Arachis hypogaea allergen 6). The assay is described as follows: ELISA, Fab titration on coated Ara h 6. The protocol: Next, the effect of the engineered variable regions on antigen binding was tested. Briefly, ELISA plates were coated with respective Ara h proteins (Ara h 2:0.05 ug/ml, Ara h 6:0.1 ug/ml, Ara h 3 loop (2nd): 0.1 ug/ml) overnight at 4° C. Afterwards, plates were blocked with BSA (2% in PBS) for 1 hour at room temperature. Fab fragment titration series starting from 4 ug/ml was prepared, added to the single ELISA plate wells and incubated for 2 h at room temperature. The read-out was performed by adding anti-hu-kappa/lambda-HRP (anti-kappa Invitrogen (A18853) and anti-lambda abcam (ab99811) for 1 h at room temperature. Tetramethylbenzidine substrate solution (TMB, Sigma-Aldrich Chemie GmbH, Buchs, Switzerland) was added, then after 5 minutes of hydrolysis time, the reaction was stopped by the addition of 1 M H₂SO₄ and the absorbances were read at 450 nm.

For assay [4] the target is unchanged. The assay is described as follows: ELISA, purified rabbit antibody.
Assay [5] has as its target T3, Ara h 3 (Arachis hypogaea allergen 3) (Arachis hypogaea).
T3 construct: Peanut allergen; also called Ara h 3.0101; nAra h 3
T3 chain: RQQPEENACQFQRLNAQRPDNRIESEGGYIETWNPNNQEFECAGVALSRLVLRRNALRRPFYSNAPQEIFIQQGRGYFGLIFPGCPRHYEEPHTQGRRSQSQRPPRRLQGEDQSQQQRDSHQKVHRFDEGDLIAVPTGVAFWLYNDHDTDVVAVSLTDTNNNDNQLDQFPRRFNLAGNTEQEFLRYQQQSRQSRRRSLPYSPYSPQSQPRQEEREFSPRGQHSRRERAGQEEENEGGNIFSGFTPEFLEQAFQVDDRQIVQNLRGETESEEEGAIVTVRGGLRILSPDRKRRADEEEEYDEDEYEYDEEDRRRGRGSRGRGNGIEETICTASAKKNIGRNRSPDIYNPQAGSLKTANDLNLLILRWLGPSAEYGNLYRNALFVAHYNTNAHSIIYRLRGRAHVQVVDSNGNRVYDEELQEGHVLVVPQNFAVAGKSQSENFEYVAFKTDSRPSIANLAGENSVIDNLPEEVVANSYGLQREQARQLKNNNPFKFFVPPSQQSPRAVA
The assay is described as follows: ELISA, antibody titrated on coated Ara h 3. The protocol: as §1

B1: 2F8 (antibody, V domains shown)
VH: EVQLVESGGGLVKPGGSLRLSCAASGFIFSDYNMNWVRQAPGKGLEWVSSITRSSRTIYYADSVKGRFTISRDNAKNSLHLQMNSLRDADTAVYYCAREDFDVSTGPYYMDVWGNGTTVIVSS
VL: EIVLTQSPGTLSLSPGERATLSCRASQSVSNMFLVWYQQKPGQAPRLLMYGASTRATDIPDRFSGSGSGTDFTLTISRLEPEDFAVYYCQQNGNSPYTFGQGTKLEIK
notes: Fully human monoclonal antibody, wild-type variable regions; tested as IgG; also called MY006-2F8
What is called EC50 is the concentration needed to bring the measured effect to its halfway point. A lower EC50 goes with higher potency in that assay. Turning to B1, the 50% effective concentration (EC50) came out at 3.31 ng/mL in assay [1] and 2.46 ng/mL in assay [2].

B2: MY006-2F8 Fab Lg (Fab, V domains shown)
VH: EVQLVESGGGLVKPGGSLRLSCAASGFIFSDYNMNWVRQAPGKGLEWVSSITRSSRTIYYADSVKGRFTISRDNAKNSLHLQMNSLRDADTAVYYCAREDFDVSTGPYYMDVWGNGTTVIVSS
VL: EIVLTQSPGTLSLSPGERATLSCRASQSVSNMFLVWYQQKPGQAPRLLMYGASTRATGIPDRFSGSGSGTDFTLTISRLEPEDFAVYYCQQNGNSPYTFGQGTKLEIK
notes: Germlined variant, IgG1-Fab format; also called 2F8 Lg
Consider B2, for which the binding result in assay [3] is recorded as “binds”.

B3: MY006-2F8 Fab Hg Lf (Fab, V domains shown)
VH: EVQLVESGGGLVQPGGSLRLSCAASGFIFSDYNMNWVRQAPGKGLEWVSSITRSSRTIYYADSVKGRFTISRDNAKNSLYLQMNSLRDEDTAVYYCAREDFDVSTGPYYMDVWGKGTTVTVSS
VL: EIVLTQSPGTLSLSPGERATLSCRASQSVSNMFLVWYQQKPGQAPRLLIYGASTRATGIPDRFSGSGSGTDFTLTISRLEPEDFAVYYCQQNGNSPYTFGQGTKLEIK
notes: Germlined variant, IgG1-Fab format; also called 2F8: Hg/Lf
As for B3, the binding result in assay [3] was “binds”.

B4: 7G6_rb_IGHV1S47_J3+IGKV1S19_JK1-2 (antibody, V domains shown)
VH: QEQLVESGGGLVQPEGSLTLTCKASGFDFSDYTMHWVRQAPGKGPEWIAAISYGGTNKYYADSVKGRFTISRSTSLNTVTLQMTSLTAVDTATYFCARDSGYRSLLHWGQGTLVTVSS
VL: AAVLTQTPSPVSAAVGGTVTIKCRSSQSLVHRNGYNYLDWYQQKPGQPPKLLIYMASKRASGVPDRFSGSGSGTQFTLTISGVQCDDAATYYCMQALQTWTFGGGTKVVVK
As to B4, the binding result in assay [4] is on record as “binds”.

B5: 7G6_rb_IGHV1S47_J3+IGKV1S19_JK1-3 (antibody, V domains shown)
VH: QEQLVESGGGLVQPEGSLTLTCKASGFDFSDYTMHWVRQAPGKGPEWIAAISYGGTNKYYADSVKGRFTISRSTSLNTVTLQMTSLTAVDTATYFCARDSGYRSLLHWGQGTLVTVSS
VL: AAVLTQTPSPVSAAVGGTVTIKCRSSQSLVHRNGYNYLDWYQQKPGQPPKLLIYMASKRASGVPDRFSGSGSGTQFTLTISGVQCDDAATYYCMQALQTWTLGPGTKLEIK
Turning to B5, the binding result in assay [4] is recorded as “binds”.

B6: 7G6_rb_IGHV1S47_J3+K66N_IGKV1S19_JK1-2 (antibody, V domains shown)
VH: QEQLVESGGGLVQPEGSLTLTCKASGFDFSDYTMHWVRQAPGKGPEWIAAISYGGTNKYYADSVKGRFTISRSTSLNTVTLQMTSLTAVDTATYFCARDSGYRSLLHWGQGTLVTVSS
VL: AAVLTQTPSPVSAAVGGTVTIKCRSSQSLVHRNGYNYLDWYQQKPGQPPKLLIYMASNRASGVPDRFSGSGSGTQFTLTISGVQCDDAATYYCMQALQTWTFGGGTKVVVK
notes: Fully rabbit antibody: 7G6 CDRs grafted onto rabbit variable frameworks
In the case of B6, the binding result in assay [4] is listed as “binds”.

B7: 15E3 (antibody, V domains shown)
VH: EVQLVESGGALVQPGGSLRLSCAASGFKFSTFYMTWIRQAPGKGLEWVANIKQDGSEKDYLDSVRGRFNISRDNAKSVLYLQMNTLSADDTGVYYCTRNGLQDSYSGDFFDHWGQGILVTVSS
VL: QSVLTQPPSISAAPGQKVTISCSGTGSNIGHNYVSWYQQLPRTAPRLLIFDNTKRPSGIPDRFSGSKSGSSATLGITGLQTGDEAHYFCATWDADLSAVLFGGGTKLTVL
notes: Fully human monoclonal antibody, wild-type variable regions; also called MY006-15E3; 15E3-human IgG1
Consider B7, for which the EC50 was 3.78 ng/mL in assay [1] and 1.74 ng/mL in assay [2].

B8: 7G6 (antibody, V domains shown)
VH: QVQLVESGGGVVQPGRSLRLSCAASGIAFNDYTMHWVRRSPDKGLEWVAAISYGGTNKYYADSVKGRFTISRDSSKNTLFLQMDSLRVEDTAVYYCARDSGYRSLLHWGQGTLVTVSS
VL: EIVLTQSPLSLPVTPGEPASISCRSSQSLVHRNGYNYLDWYLQKPGQSPQLLIYMASKRASGVPDRFSGSGSGTEFTLKISRVEAEDVGIYYCMQALQTWTFGQGTKVEVN
notes: Fully human monoclonal antibody, wild-type variable regions; tested as IgG; also called MY006-7G6
Take B8: the EC50 stood at 0.629 ng/mL in assay [1] and 1 ng/mL in assay [2].

B9: 15E3_rb_IGHV1S8_J5+IGLV2S2_JL5 (antibody, V domains shown)
VH: QKQLVESGGGLDQPAGSLKLSCKDSGFTLSTFYMTWVHQAPGKGLEWIANIKQDGSEKDYLDSVRGRFTISSDNTQNMVDLEMNSLTAADMAIYFCARNGLQDSYSGDFFDHWGQGTLVTVSS
VL: QPALTQPSSVSGALGGSVTITCSGTGSNIGHNYVSWYQQLPGSVPKLLMFDNTKRPSGIPERFSGSKSGTTASLTISGLQPEDEADYYCATWDADLSAVLFGGGTKLTVL
As to B9, the binding result in assay [4] is “binds”.

B10: 17H9 (antibody, V domains shown)
VH: QVQLEEYGGGVVQPGRSLRLSCVASGSTLGTYGMHWVRQAPGKGLEWVAIISPDGGHQDYADPVRGRFTVSRDNSKNTLYLQMDNLRVEDTAVYYCATTLCARTDCTWVRSDSWGQGTLVTVSS
VL: ANVLTQSPGTLSLSPGERATLSCRASQRVSGDYLAWYQQKRGQAPRLLIYGASSRATGIPDRFSGSGSGTDFTLTISRLEPEDFAVYYCQHYNGPPVTFGQGTKLEIK
notes: Fully human monoclonal antibody, wild-type variable regions; tested as IgG (detected with anti-human IgG); also called MY006-17H9
As for B10, the values for the EC50 in assay [1] and in assay [5] were 2.2 ng/mL and 7.38 ng/mL, respectively.
